The record followed here is article PMC12756002, “Mutations in Hsp40 co-chaperone change the canonical interdomain interactions stimulating LGMDD1 myopathy” (The Journal of Biological Chemistry, 2025).

The target of one assay is T1, Ssa1-WT (yeast, UniProt P10591 1-642).
T1 construct: Ssa1, yeast Hsp70; Cloned into pPROEx-Htb; cleavage of the tag follows from 'the remaining purification steps were analogous to those for Sis1-WT'; also called Hsp70; source: E. coli Rosetta 2(DE3), purified (Talon resin, steps analogous to Sis1)
Description: ELISA; Ssa1 (200 nM) immobilised in microtiter wells; dilutions of Sis1-WT or mutants (0-50 nM); bound Sis1 detected with an anti-Sis1 antibody; no client. Conditions: both partners purified. Background: ELISA stands for enzyme-linked immunosorbent assay.

A further assay deals with T2, full-length Rnq1 (yeast, UniProt P25367 1-405).
T2 construct: also called FL Rnq1; Rnq1-WT
T2 sequence (looked up): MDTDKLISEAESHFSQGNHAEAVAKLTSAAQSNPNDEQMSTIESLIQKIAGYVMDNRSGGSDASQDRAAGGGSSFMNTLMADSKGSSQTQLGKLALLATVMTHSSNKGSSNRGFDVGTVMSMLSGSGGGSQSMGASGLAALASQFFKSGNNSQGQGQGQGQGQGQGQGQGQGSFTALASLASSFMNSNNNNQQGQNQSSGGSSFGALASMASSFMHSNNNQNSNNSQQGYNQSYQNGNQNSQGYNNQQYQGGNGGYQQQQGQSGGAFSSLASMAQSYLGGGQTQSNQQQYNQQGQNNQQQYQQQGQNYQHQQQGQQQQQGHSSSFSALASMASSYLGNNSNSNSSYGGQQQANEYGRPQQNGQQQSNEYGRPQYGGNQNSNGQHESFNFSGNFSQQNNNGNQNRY
Description: ELISA; denatured substrate (FL Rnq1 or ΔN Rnq1 400 ng, luciferase 100 ng) immobilised in microtiter wells; dilutions of Sis1-WT or mutants (0-20 or 0-25 nM) in PBS-T with 0.5% BSA, overnight at room temperature; retained Sis1 detected with an anti-Sis1 antibody. The settings on record: both partners purified.

T1 sequence (P10591 whole entry): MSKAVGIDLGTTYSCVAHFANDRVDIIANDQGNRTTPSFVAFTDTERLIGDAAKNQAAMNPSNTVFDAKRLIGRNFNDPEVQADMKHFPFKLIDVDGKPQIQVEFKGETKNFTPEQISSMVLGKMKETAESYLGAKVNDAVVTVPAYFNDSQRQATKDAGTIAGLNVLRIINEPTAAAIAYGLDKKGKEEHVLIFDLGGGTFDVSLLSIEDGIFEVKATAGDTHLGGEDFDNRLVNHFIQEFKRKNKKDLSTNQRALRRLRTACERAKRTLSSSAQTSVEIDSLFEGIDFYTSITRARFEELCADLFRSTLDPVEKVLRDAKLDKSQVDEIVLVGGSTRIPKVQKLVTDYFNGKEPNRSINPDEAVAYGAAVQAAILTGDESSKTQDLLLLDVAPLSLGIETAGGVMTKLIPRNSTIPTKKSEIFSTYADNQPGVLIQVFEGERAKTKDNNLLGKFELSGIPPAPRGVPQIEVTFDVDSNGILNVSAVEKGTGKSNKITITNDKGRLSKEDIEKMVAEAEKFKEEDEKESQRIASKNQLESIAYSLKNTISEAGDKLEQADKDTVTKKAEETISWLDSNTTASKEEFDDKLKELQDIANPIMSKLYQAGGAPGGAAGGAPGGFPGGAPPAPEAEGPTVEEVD

B1: Sis1-N56L (natural protein, yeast, UniProt P25294 1-352, looked up)
chain: MVKETKLYDLLGVSPSANEQELKKGYRKAALKYHPDKPTGDTEKFKEISEAFEILLDPQKREIYDQYGLEAARSGGPSFGPGGPGGAGGAGGFPGGAGGFSGGHAFSNEDAFNIFSQFFGGSSPFGGADDSGFSFSSYPSGGGAGMGGMPGGMGGMHGGMGGMPGGFRSASSSPTYPEEETVQVNLPVSLEDLFVGKKKSFKIGRKGPHGASEKTQIDIQLKPGWKAGTKITYKNQGDYNPQTGRRKTLQFVIQEKSHPNFKRDGDDLIYTLPLSFKESLLGFSKTIQTIDGRTLPLSRVQPVQPSQTSTYPGQGMPTPKNPSQRGNLIVKYKVDYPISLNDAQKRAIDENF
notes: Sis1, essential yeast DNAJ (Hsp40) protein, with the J-domain mutation N56L; also called homologous to DNAJB6-S57L; LGMDD1 J-domain mutant; source: E. coli Lemo21(DE3), purified (Talon cobalt resin, TEV cleavage, second Talon pass)
Consider B1, for which the binding result with Ssa1-WT and in the assay with full-length Rnq1 was “binds” throughout.

B2: Sis1-E53K (natural protein, yeast, UniProt P25294 1-352, looked up)
chain: MVKETKLYDLLGVSPSANEQELKKGYRKAALKYHPDKPTGDTEKFKEISEAFKILNDPQKREIYDQYGLEAARSGGPSFGPGGPGGAGGAGGFPGGAGGFSGGHAFSNEDAFNIFSQFFGGSSPFGGADDSGFSFSSYPSGGGAGMGGMPGGMGGMHGGMGGMPGGFRSASSSPTYPEEETVQVNLPVSLEDLFVGKKKSFKIGRKGPHGASEKTQIDIQLKPGWKAGTKITYKNQGDYNPQTGRRKTLQFVIQEKSHPNFKRDGDDLIYTLPLSFKESLLGFSKTIQTIDGRTLPLSRVQPVQPSQTSTYPGQGMPTPKNPSQRGNLIVKYKVDYPISLNDAQKRAIDENF
notes: Sis1, essential yeast DNAJ (Hsp40) protein, with the J-domain mutation E53K; also called homologous to DNAJB6-E54K; LGMDD1 J-domain mutant; source: E. coli Lemo21(DE3), purified (Talon cobalt resin, TEV cleavage, second Talon pass)
As to B2, the binding result with Ssa1-WT and in the assay with full-length Rnq1 was “binds” throughout.

B3: Sis1-S49V (natural protein, yeast, UniProt P25294 1-352, looked up)
chain: MVKETKLYDLLGVSPSANEQELKKGYRKAALKYHPDKPTGDTEKFKEIVEAFEILNDPQKREIYDQYGLEAARSGGPSFGPGGPGGAGGAGGFPGGAGGFSGGHAFSNEDAFNIFSQFFGGSSPFGGADDSGFSFSSYPSGGGAGMGGMPGGMGGMHGGMGGMPGGFRSASSSPTYPEEETVQVNLPVSLEDLFVGKKKSFKIGRKGPHGASEKTQIDIQLKPGWKAGTKITYKNQGDYNPQTGRRKTLQFVIQEKSHPNFKRDGDDLIYTLPLSFKESLLGFSKTIQTIDGRTLPLSRVQPVQPSQTSTYPGQGMPTPKNPSQRGNLIVKYKVDYPISLNDAQKRAIDENF
notes: Sis1, essential yeast DNAJ (Hsp40) protein, with the J-domain mutation S49V; also called homologous to DNAJB6-A50V; LGMDD1 J-domain mutant; source: E. coli Lemo21(DE3), purified (Talon cobalt resin, TEV cleavage, second Talon pass)
For B3, the binding result in the assay with Ssa1-WT and in the assay with full-length Rnq1 was “binds” in each case.
